In patent publication US20190284275A1:
Where a chain is given by its changes, count along the chain named.

B1: 1F4_5C5 (antibody, V domains shown)
VH: EVQLVQSGGGVVQPGRSLRLSCAASGFTSKKYGMHWVRQAPGKGLEWVAVISHDGSKKYYADSVKGRFTISRDNSKNTLFVQLSSLRPEDTAVYYCATSLYSSMDLWGQGTTVTVSS
VL: QSVVTQPPSVSAAPGQKVTISCSGSNSNIGKNYVSWFQQVPGTAPKLLIFEDNQRPSGIPDRFSASKSGTSASLAISGLQSEDEADYYCAAWDDLGGDHWVFGGGTKLTVL
B2: 1F4_4E10 (antibody, V domains shown)
VH: B1 VH with K30R, K31A, Y32P
VL: B1 VL with L95H, G96N, D98E
B3: 1F4_5F8 (antibody, V domains shown)
VH: B1 VH with K30R, K31N, Y32P
VL: B1 VL with L95S, G96T, D98V
B4: 1F4_1E3 (antibody, V domains shown)
VH: B1 VH with K30R, K31H, Y32P
VL: B1 VL with L95Y, G96R, D98P

Molecular target: human KRAS (antigen of the affinity data in Table 1; variant not stated) (human) (UniProt P01116)
Assay: kinetic affinity measurement (Rmax in RU; method and format not named)

| Binder | Kd [nM] | koff [s⁻¹] | kon [M⁻¹ s⁻¹] |
| --- | --- | --- | --- |
| B1 | 6.63 | 0.0011 | 166000 |
| B2 | 9.6 | 0.0013 | 135000 |
| B3 | 12.6 | 0.00229 | 182000 |
| B4 | 4.2 |  |  |
